Results: CN114395042A (BEIJING COONOXIN ZONGCHENG SCIENCE AND TECH CO, dated 2022)

T1: 人IL33-his重组蛋白 (human, UniProt O95760 112-270)
T1 construct: range 112-270; also called human IL-33; not shown: his tag
T1 sequence (looked up): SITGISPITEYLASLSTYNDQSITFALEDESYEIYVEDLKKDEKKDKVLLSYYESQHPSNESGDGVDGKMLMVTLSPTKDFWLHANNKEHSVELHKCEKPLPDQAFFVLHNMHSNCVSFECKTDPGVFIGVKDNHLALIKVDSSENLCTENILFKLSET

T2: hIL-33WT (human, UniProt O95760 112-270, limits assumed)
T2 sequence (looked up): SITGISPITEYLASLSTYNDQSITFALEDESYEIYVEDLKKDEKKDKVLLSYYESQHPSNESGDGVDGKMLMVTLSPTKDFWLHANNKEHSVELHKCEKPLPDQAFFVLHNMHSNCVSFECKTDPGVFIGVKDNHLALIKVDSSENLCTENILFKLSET


Legend:
人IL33-his重组蛋白 [1] = biological target: T1, 人IL33-his重组蛋白; assay: BLI (ForteBio), Example 3
人IL33-his重组蛋白 [2] = biological target: T1, 人IL33-his重组蛋白; assay: BLI (ForteBio), antibody captured on AHC probe, IL33-his 15-60 nM in solution, 1:1 fit
hIL-33WT = biological target: T2, hIL-33WT; assay: cell-based or functional assay

Row | Binder | Kd (人IL33-his重组蛋白 [1]) [nM] | koff (人IL33-his重组蛋白 [1]) [s⁻¹] | kon (人IL33-his重组蛋白 [1]) [M⁻¹ s⁻¹] | Kd (人IL33-his重组蛋白 [2]) [nM] | koff (人IL33-his重组蛋白 [2]) [s⁻¹] | kon (人IL33-his重组蛋白 [2]) [M⁻¹ s⁻¹] | IC50 of inhibition of IL-33-stimulated IL-5 production by KU812 cells (hIL-33WT) [µg/mL]
1 | ch25H12 (antibody, human IgG1, kappa, V domains shown, Human-mouse chimeric IgG1/kappa expressed in HEK293 and purified on Protein A; also called 嵌合抗体ch25H12) VH: EVQLQQSGAELVKPGASVKLSCTASGFNIKDTYIHWVKQRPEQGLEWIGRIDPTADNTKYHPKFQGKATLTADTSSNTAYLQLSSLTSEDTAVYFCARGSSYALDYWGQGTSVTVSS VL: QIVLTQSPAIMSASPGEKVTITCSASSSVSYMHWFQQKPGTSPKLWIYRTSNLASGVPDRFSGSGSGTSYSLTISRMEAEDAATYYCQQRSSYLFMFGAGTKLELKR |  |  |  | 77.7 | 0.000619 | 7970 | 
2 | h25D8H1L1 (antibody, human IgG1, kappa, V domains shown, also called 人源化抗体h25D8H1L1; hzVH1/hzVL1) VH: QVQLVQSGAEVKKPGASVKLSCKTSGYTFTSYWIQWVRQAPGQGLEWIGEIFPGTGTTYYNQKFQGRATLTTDTSTTTAYMELSSLRSEDTAVYFCARRIRDYYGSNYFDYWGQGTTLTVSS VL: DIQLTQSPSSMSASVGDRVTITCRASSSVSYMHWFQQKPGKAPKLWIYRTSNLQSGVPSRFSGSGSGTDYTLTISSMQPEDFATYYCLQRSTYLFMFGQGTKLELKR | 0.61 | 0.000366 | 600000 |  |  |  | 0.677

Further binders by falling Kd (人IL33-his重组蛋白 [2]), results first:

Row | Kd (人IL33-his重组蛋白 [1]) [nM] | koff (人IL33-his重组蛋白 [1]) [s⁻¹] | kon (人IL33-his重组蛋白 [1]) [M⁻¹ s⁻¹] | Kd (人IL33-his重组蛋白 [2]) [nM] | koff (人IL33-his重组蛋白 [2]) [s⁻¹] | kon (人IL33-his重组蛋白 [2]) [M⁻¹ s⁻¹] | IC50 of inhibition of IL-33-stimulated IL-5 production by KU812 cells (hIL-33WT) [µg/mL] | Binder
3 |  |  |  | 6.7 | 0.000419 | 62500 | 5.82 | ANB020 (antibody, V domains shown, The variable regions were cloned into vectors holding human IgG1 light and heavy chain constant regions; also called 对照抗体ANB020; 对照抗体) VH: QVQLMQSGAEVKKPGASVKVSCKASGYTFTSYWMHWVRQAPGQGLEWMGTIYPRNSNTDYNQKFKARVTMTRDTSTSTVYMELSSLRSEDTAVYYCARPLYYYLTSPPTLFWGQGTLVTVSS VL: DIQLTQSPSFLSASVGDRVTLTCKASQDVGTAVAWTQQKPGKAPKLLIYWASTRHTGVPSRFSGSGSGTEFTLTISSLQPEDFATYYCQQAKTYPFTFGSGTKLEIK
4 | 0.617 | 0.000472 | 766000 | 0.9 | 7.53e-05 | 83600 |  | ch25D8 (antibody, human IgG1, kappa, V domains shown, also called 嵌合抗体ch25D8; 25D8分子的嵌合抗体) VH: QVQLQQSGTELVKPGASVKLSCKTSGYTFTSYWIQWVKQRPGQGLGWIGEIFPGTGTTYYNEKFKGKATLTTDTSSTTAYMQLSSLTSEDSAVYFCARRIRDYYGSNYFDYWGQGTTLTVSS VL: QIVLTQSPAIMSASPGEKVTITCSASSSVSYMHWFQQKPGTSPKLWIYRTSNLASGVPDRFSGSGSGTSYSLTISRMEAEDAATYYCLQRSTYLFMFGAGTKLELKR
